From patent publication US20100256040A1 (priority 2001, published 2010)

Biological target: T1, interaction between GST-p6 and myc-Tsg101(1-207) (Homo sapiens, UniProt Q99816)
T1 construct: myc-tagged Tsg101 (residues 1-207); made in house; host or cells: Drosophila S2 cells, with Tsg101 used as crude cell lysate
T1 sequence (Q99816 1-207): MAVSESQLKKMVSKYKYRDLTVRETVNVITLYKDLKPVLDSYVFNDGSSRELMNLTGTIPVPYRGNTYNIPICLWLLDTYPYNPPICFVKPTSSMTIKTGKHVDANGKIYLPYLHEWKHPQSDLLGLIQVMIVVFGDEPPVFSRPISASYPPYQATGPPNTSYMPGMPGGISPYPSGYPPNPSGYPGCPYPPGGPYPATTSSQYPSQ
Assay: Competitive inhibition of GST-p6 : myc-Tsg101(1-207) binding on plates (fluorescence detection)
Settings: competitive inhibition curve, FIG. 1
Procedure: A fusion protein with a GST tag fused to the HIV-1 GAGp6 domain was recombinantly expressed and purified by chromatography. In addition, a GAGp6 peptide containing the first 14 amino acid residues (“p6(1-14)”) was synthesized chemically by standard peptide synthesis methods. The peptide was purified by conventional protein purification techniques, e.g., by chromatography.
Nunc/Nalgene Maxisorp plates were incubated overnight at 4° C. or for 1-2 hrs at room temperature in 100 μl of a protein coupling solution containing purified GST-p6 and 50 mM Carbonate, pH=9.6. This allowed the attachment of the GST-p6 fusion protein to the plates. Liquids in the plates were then emptied and wells filled with 400 μl/well of a blocking buffer (SuperBlock; Pierce-Endogen, Rockford, Ill.). […]
Plates were then washed 4×100 μl with 1×PBST solution (Invitrogen; Carlsbad, Calif.). […] Plates were then read on a Packard Fusion instrument at an excitation wavelength of 325 nm and an emission wavelength of 420 nm. […]
Different concentrations of the p6(1-14) peptide were tested, and the relative intensities of the fluorescence signals obtained at different concentrations were plotted against the peptide concentrations. […]

p6(1-14): chemically synthesized GAGp6 peptide containing the first 14 amino acid residues (LQSRPEPTAPPEES)
inhibition of protein-protein interaction between GST-p6 and myc-Tsg101(1-207): capable of inhibiting protein-protein interaction
